Source: the DeepSol protein solubility set

Test: soluble on expression in E. coli; label from the status in PepcDB or PDB records

| Sequence | soluble on expression in E. coli |
| --- | --- |
| MLVAERQQKIVEIVNMRSSIRVSELSDIFSVTEETIRRDLEKLEKEHKLSRSHGGAVSIQQKESEIHFSEREITNVIEKKAIAHEAAKYVKSGDRIILDASTTAWYMAKILPDIELTVITNSMKAAIELSNKENISVISTGGILLEKSLSFAGPLAERSLETYHVNKTFLSCKGFDVHNGMSDSNEWQALLKKRMIERSDQTILMADSSKWGNREFSHIASLQDVSRLITDSGLDPASVKALEDKKVKVTAVPLSKRGLEHHHHHH | soluble |
| MSLNHPDYKLNLRSPGTPRGVSSVVGPSAVGASPGDKKSKNKSMRGKKKSIFETYMSKEDVSEGLKRGTLIQGVLRINPKKFHEAFIPSPDGDRDIFIDGVVARNRALNGDLVVVKLLPEDQWKAVKPESNDKEIEATYEADIPEEGCGHHPLQQSRKGWSGPDVIIEAQFDDSDSEDRHGNTSGLVDGVKKLSISTPDRGKEDSSTPVMKDENTPIPQDTRGLSEKSLQKSAKVVYILEKKHSRAATGILKLLADKNSDLFKKYALFSPSDHRVPRIYVPLKDCPQDFMTRPKDFANTLFICRIIDWKEDCNFALGQLAKSLGQAGEIEPETEGILTEYGVDFSDFSSEVLECLPQSLPWTIPPDEVGKRRDLRKDCIFTIDPSTARDLDDALACRRLTDGTFEVGVHIADVSYFVPEGSSLDKVAAERATSVYLVQKVVPMLPRLLCEELCSLNPMTDKLTFSVIWKLTPEGKILEEWFGRTIIRSCTKLSYDHAQSMIENPTEKIPEEELPPISPEHSVEEVHQAVLNLHSIAKQLRRQRFVDGALRLDQLKLAFTLDHETGLPQGCHIYEYRDSNKLVEEFMLLANMAVAHKIFRTFPEQALLRRHPPPQTKMLSDLVEFCDQMGLPMDVSSAGALNKSLTKTFGDDKYSLARKEVLTNMYSRPMQMALYFCSGMLQDQEQFRHYALNVPLYTHFTSPIRRFADVIVHRLLAAALGYSEQPDVEPDTLQKQADHCNDRRMASKRVQELSIGLFFAVLVKESGPLESEAMVMGVLNQAFDVLVLRFGVQKRIYCNALALRSYSFQKVGKKPELTLVWEPDDLEEEPTQQVITIFSLVDVVLQAEATALKYSAILKRPGLEKASEGHHHHHH | soluble |
| GPGSMSVEASRPTRSQDPLPAAVIREFLEMHQQCNDQSLGQGESPTGTEKDGTRAAEARVVSAPLRVEVETTHGYVYEGRLVAMDEFYNVTLTEATKRRERLCDVERSLLTMHGFPAPAASPSTRREYVGSVLVRSGNLLMIRFPQGEGNATRVLHGAFKSMVMKVRRQINLERQKNRMERRRRKQLPVKPQSLVGKAGDPPKRTKAKKE | soluble |
| GPGSMEVNATLIDCCDPQKPSRVLFHFLILDAPSPSNLPTYIKELQHRGVRHLVRVCGPTYDATLVKSRGIDVHSWPFDDGAPPTRAVLDSWLKLLDTELARQQEDPSVPPPTIGVHCVAGLGRAPILVALALVEYGNVSALDAIALIREKRKGAINQTQMHWITKYKRRHQGAGCVIM | soluble |
| MTGALAMMPSTSSPYPLLAPPTCSSRLPPLRCFVGLRWSAPRIQVREYPDAVAGIAKGAGGRGGRFRAPASSISQPCSRTIIITNEHVQNADFPPNYSKREKKPFPIPVLELRRRAKERAKKAEGKPKRSLPPPKNGMLIKRLIPVAYKVYNARILLINNLKRLMKVIPVKGCKHCSEIHVGSVGHPFRTCKGMSSDKRRGQHDWGGTLVEAVFVPVEAYHLEDRLGKRIPHDQRFAVPRIPALVELCIQAGVNLPEYPTKRRRKPIIKIGKNEFVDANEDDLPDPEPYKLEHPILEELNDNEIIAPASPEEIVALAEETLEAWEVVRDGALKLMKGYAVRVCGYCPEVHIGASGHKARNCGAFKHQQRNGQHGWQAAVLDDLIPPRYVWHLPESGEDLQRDLKSFYGQAPAIVEICVQAGAKVPEKYKATMRLDIGIPTSLREAEMVV | not soluble |
| MSLAPFVAKDIRVDGVQGDLEQQIRASLPVRAGQRVTDNDVANIVRSLFVSGRFDDVKAHQEGDVLVVSVVAKSIISDVKIKGNSVIPTEALKQNLDANGFKVGDVLIREKLNEFAKSVKEHYASVGRYNATVEPIVNTLPNNRAEILIQINEDDKAKLASLTFKGNESVSSSTLQEQMELQPDSWWKLWGNKFEGAQFEKDLQSIRDYYLNNGYAKAQITKTDVQLNDEKTKVNVTIDVNEGLQYDLRSARIIGNLGGMSAELEPLLSALHLNDTFRRSDIADVENAIKAKLGERGYGSATVNSVPDFDDANKTLAITLVVDAGRRLTVRQLRFEGNTVSADSTLRQEMRQQEGTWYNSQLVELGKIRLDRTGFFETVENRIDPINGSNDEVDVVYKVKERNTGSINFGIGYGTESGISYQASVKQDNFLGTGAAVSIAGTKNDYGTSVNLGYTEPYFTKDGVSLGGNVFFENYDNSKSDTSSNYKRTTYGSNVTLGFPVNENNSYYVGLGHTYNKISNFALEYNRNLYIQSMKFKGNGIKTNDFDFSFGWNYNSLNRGYFPTKGVKASLGGRVTIPGSDNKYYKLSADVQGFYPLDRDHLWVVSAKASAGYANGFGNKRLPFYQTYTAGGIGSLRGFAYGSIGPNAIYAEYGNGSGTGTFKKISSDVIGGNAIATASAELIVPTPFVSDKSQNTVRTSLFVDAASVWNTKWKSDKNGLESDVLKRLPDYGKSSRIRASTGVGFQWQSPIGPLVFSYAKPIKKYENDDVEQFQFSIGGSFEGHHHHHH | not soluble |
| MSLSKVLYIQDHDVTWIQFNRPEKRNAIDEETMDQFAEALAQAKGDQSKVIIVTGAGEKAFCAGGDLSSFHKLKTESEAKAMLAKMAKILLDVYYCPKLTVAALNGAAVGGGCEIAAACDIRLAAPHSKFGFIQGTLGITTGWGGTSFLMTRVQPHVSLEMTMTGKVYSSDVGENLGFIQKVIQKIPFREGVKEWLGLYTVLDQEVLIAYKERHLDRISRKELIWRIEREVAKCAQLWERDAHHEAVDAFLREGHHHHHH | soluble |
| MDFLSREGSPISAELWEKIDEAVVSAAKKILTGRRFISIYGPLGAGIQAINVDNISELDETEENISVIRGRTYRHIPLINEDFSLLWRDLEFSEQMGLPVDLSSASRAATQCALREDKLIFYGNDELGYKGLLTEDGIVKFPISNWSEGENPFKDISIGLAKFIENGIVGRKALVVSPNLFVQLQRIQPGTGTTEYDRINKLLDGNIFSTPVLKDDKAVLVCSEPQNIDLVIGQDMITSYLETKNLNHYFRIMETILLRIKNKKAVIVFD | not soluble |
| MSLKYDLKYLSVPLPEEIQRVKEFGDFASADIAIDFWLTKELPQALKERLIIEKDVIKMMRMNEYPHSFAKADQMMRDTFQDYQTEELIRLKETGLVDWVYIDGEPYFQLRFLANLIKTNAAYVARLREAESNQLEILRKKELKENIEQMQKNGGRKVRTTIKATIQVKKEFERPGERVRVHLPLPKACQQQSEIEILATSPEATYIAAEDAPQRTLCFETILKENQTFTVEYCYVNRMVYQQLEENNVDKMQPSFDLEEQLPHIRFTPYLRNLADEIVGDESNPLKKARLIYDFVTTKIHYSFMREYFTISNISEYAATNLKGDCGVQAILFITLCRIAGIPAKWQSGLYVSTHYTGCHDWAQFYIKPYGWLFADLSFGGGAYRDGDRQRWNHYFGNLDVFRMVANSEIQADFQPAKMQLRADPIDNQRGEFEYENEGLPYACLIVSQERLSMEELPFDEGGSHHHHHH | soluble |
| MAHHHHHHMNIKRSIYHYLSYSSFLIKNHYHHNNTIYPCFHSLRNNNKMSYFRPNYFICIPIKNDNICNELINIQKHVLVKYDELKDCIIERNKFHISLLILHIKKNQIELSKEAFNEAMEKIKKNMHNEKICFEKLDTFRNDVLYLSLKEDSNKYIINIINHLIDSFSKRGIKIIFNNKKPAKEILSNNNKKELNKNSNDLQHITPHLTLMKNSYMKKMYMNKKPQILPFFYTDYDLTNLLKEQIDIQKIQFLEMDMDTSTSYYKIVSEFNL | not soluble |
| MSLSVPQKRYFLGLHIGHDRAITVADDTNLVFHTAVERLDRKKHSDSFHLPVEEIKTVLLYLNVDVSELRGVCISYLAVDASRVSMTLEASFRDAFPDFEGRFSALDHHLAHALGAKVCSGFDEALVVVADGAGDQRLWGSQSETIYHVSSDTFYLLDERVQSPPLTYINRPEFYDPSYFRPDDQERQISLGLKYEQITYLCGFGPGQAGQTMALAAFGKPLFDYRNMLPKDLSFSLRYTDFLREFEALARADGLSLIQFAKSRRSDIAATYQAYLSEALSAIVKDALDRFPSKRVCFSGGLFLNCLSNRRLHDEHPDRELFFFPACNDEGQSIGTAAYAYWQEHSRLPREGHHHHHH | not soluble |
| MGSSHHHHHHSSGLVPRGSGDYDYLIKLLALGDSGVGKTTFLYRYTDNKFNPKFITTVGIDFREKRVVYNAQGPNGSSGKAFKVHLQLWDTAGQERFRSLTTAFFRDAMGFLLMFDLTSQQSFLNVRNWMSQLQANAYCENPDIVLIGNKADLPDQREVNERQARELADKYGIPYFETSAATGQNVEKAVETLLDLIMKRMEQCVEKTQIPDTVNGG | soluble |
| MAHHHHHHMSAMSSSDDAPPHQRLASEQSKRDSGAHVGAREHIHDAPTLSARARFLRELERYASDDDDYGGNGGAAVVGAGPMRQPNQANGAPQRRTAFPLVSATRAAAPSVGPSSSSDFFFGGEGGSHDEADDEDVGEDAVWSTASAASLARTLNGVPVTGSTSDIGTTGGSAAPSRVGLQLLHRMHALSTSGDRRSSGHDSAVHSAATRANVMIPQTSPTPTSSADFEVVHAYVPLSTGGFLSTANAAHDTMEGYQVRIGDVLSLRKPLSCTDPPPSSAVASAPASSPTTSTATPSIAALTLTTGSAAAGASATGSLVKDVAQKAMGHFKSAATFTSEEQKYGRKLTPDMVRLLFEVTRVDYQGRSIEALFLDGTRAKVSFFEVRPAGYVERKMYATWKADPSSRPVTIIHSNASSPTTSSAPNGAVMPSSVPSPALPPPPSVTAAAWWVIPRLLVRVTTEAAGDWYGKKCVVKAVQRSENRVRLAEWVEEGRSDGGESGSRSFHNCGKPTAATAETRELIGVDGLETVVPKKGGRAMVVLGSRRGEMCTVRNRVRGADGELTAVEVEISRTKEVMTLQAGELCALAR | soluble |
| MRKVETTKAPQAIGPYSQGIIVNNMFYSSGQIPLTPEGELVKGDIQAQTHQVFQNLKAVLEAAGASLDTVVKTTVFLKNMDDFAAMNEVYSQYFPNHKPARSCVEVARLPKDVLVEIEVVALVP | soluble |
| MINMEKCLLEKYNSLLEFFKNKKVIVAYSGGVDSTLISKIASDATKTLAVTVDNGFFSENVIKKAEDCAKKYNIPQKTEKIDYLNEITSKNLENRCYNCKKRIAEELKKIKNELNYDIIVDGTIYDDIFEDRPGIKAFHEENIISPLSDLKFNKNDVFEISKYLKIDIPKKDTCMATRILSAPISKENMAKSNLAEEFIKSNFHIESYLRVRYIENIAIIELTKNESEKIFDNDSIERINTELKKIGFEKVVIDLNFK | not soluble |
| MGHHHHHHSHMREPWLFGEEHTRLIREAIRERYGLLPYWYSLFYHAHVASQPVMRPLWVEFPDELKTFDMEDEYMLGSALLVHPVTEPKATTVDVFLPGSNEVWYDYKTFAHWEGGCTVKIPVALDTIPVFQRGGSVIPIKTTV | soluble |
| GSHMGFLSGKRILVTGVASKLSIAYGIAQAMHREGAELAFTYQNDKLKGRVEEFAAQLGSDIVLQCDVAEDASIDTMFAELGKVWPKFDGFVHSIGFAPGDQLDGDYVNAVTREGFKIAHDISSYSFVAMAKACRSMLNPGSALLTLSYLGAERAIPNYNVMGLAKASLEANVRYMANAMGPEGVRVNAISAGPIRTLAASGIKDFRKMLAHCEAVTPIRRTVTIEDVGNSAAFLCSDLSAGISGEVVHVDGGFSIAAMNELELK | soluble |
| MDIPRIFTISESEHRIHNPFTEEKYATLGRVLRMKPGTRILDLGSGSGEMLCTWARDHGITGTGIDMSSLFTAQAKRRAEELGVSERVHFIHNDAAGYVANEKCDVAACVGATWIAGGFAGAEELLAQSLKPGGIMLIGEPYWRQLPATEEIAQACGVSSTSDFLTLPGLVGAFDDLGYDVVEMVLADQEGWDRYEAAKWLTMRRWLEANPDDDFAAEVRAELNIAPKRYVTYARECFGWGVFALIARLEHHHHHH | soluble |
